Target: T1, Salmonella typhimurium tryptophan synthase TrpB subunit (Salmonella typhimurium, UniProt P0A2K1 1-397, pyridoxal 5'-phosphate (PLP) as internal aldimine; Lys87 named in the active site)
T1 construct: Tryptophan synthase beta chain (TrpB), Salmonella typhimurium; also called TS β-subunit
T1 sequence: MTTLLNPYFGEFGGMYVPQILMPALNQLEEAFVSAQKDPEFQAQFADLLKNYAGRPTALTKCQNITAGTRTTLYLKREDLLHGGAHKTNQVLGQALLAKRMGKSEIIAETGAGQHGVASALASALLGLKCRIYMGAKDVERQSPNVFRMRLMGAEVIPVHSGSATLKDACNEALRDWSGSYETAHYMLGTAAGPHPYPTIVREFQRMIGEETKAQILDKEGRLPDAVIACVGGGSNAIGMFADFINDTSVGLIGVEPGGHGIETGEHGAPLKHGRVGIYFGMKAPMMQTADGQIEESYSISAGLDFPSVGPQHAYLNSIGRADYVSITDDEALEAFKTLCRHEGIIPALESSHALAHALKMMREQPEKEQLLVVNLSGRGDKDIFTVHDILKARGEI
Assay: crystal structure; TrpAB complex purified together; crystals from 17% (w/v) PEG 300, 0.1 M Tris-HCl pH 7.5, 20 mM cesium chloride, 18 °C, hanging drop; space group C 2, one TrpA and one TrpB in the asymmetric unit; cryo-trapped 0, 20, 25 and 30 s after LAMA mixing with indole, serine and G3P
Settings: both partners purified

B1: Salmonella typhimurium tryptophan synthase TrpA subunit (enzyme)
chain: MERYENLFAQLNDRREGAFVPFVTLGDPGIEQSLKIIDTLIDAGADALELGVPFSDPLADGPTIQNANLRAFAAGVTPAQCFEMLALIREKHPTIPIGLLMYANLVFNNGIDAFYARCEQVGVDSVLVADVPVEESAPFRQAALRHNIAPIFICPPNADDDLLRQVASYGRGYTYLLSRSGVTGAENRGALPLHHLIEKLKEYHAAPALQGFGISSPEQVSAAVRAGAAGAISGSAIVKIIEKNLASPKQMLAELRSFVSAMKAASRA
notes: Tryptophan synthase alpha chain (TrpA), Salmonella typhimurium; also called TS alpha subunit
B1: binds.

— publication PMC10130016, “Millisecond cryo-trapping by the spitrobot crystal plunger simplifies time-resolved crystallography” (Nature Communications, 2023)
